Experimental findings from US20170119790A1, “Agents, Uses and Methods” (CYTOGUIDE A/S, priority 2009, published 2017) are described below.

This experiment deals with T1, CD163 on peripheral blood dendritic cells (Homo sapiens, UniProt Q86VB7).
T1 construct: Freshly drawn peripheral whole blood samples or PBMC; endogenous in cells; host or cells: human peripheral blood monocytes, blood dendritic cells, monocyte-derived macrophages (healthy donors, buffy coats)
Briefly: Flow cytometry of CD163 expression on peripheral blood dendritic cells. The experiment is classed as cell-based. From the text:
Freshly drawn peripheral whole blood samples (approx. 3×10^6 cells) were stained with isotype-matched control antibody (Mouse IgG1 PE, k isotype control, MOPC-21, BD Pharmingen™, San Diego, Calif., USA) or a relevant antibody (anti-CD3 FITC, UCHT1, BD Biosciences, San Diego, Calif., USA; anti-CD11c FITC, KB90, DAKO A/S, Glostrup, Denmark; anti-CD14 FITC, RM052, 10Tests®, Beckman and Coulter, Marseille, France; anti-CD16 FITC, 3G8, BD Biosciences, San Diego, Calif., USA; anti-CD19 FITC, SJ25C1, BD Biosciences, San Diego, Calif., USA; anti-CD20 FITC, CAT 13.6E12, Diatec.com A/S, Oslo, Norway; anti-CD56 FITC, NCAM16.2, BD Biosciences, San Diego, Calif., USA; anti-CD91 FITC, A2MR-a2, BD Biosciences, San Diego, Calif.; anti-HLA-DR FITC, EDU-1, Diatec.com A/S, Oslo, Norway; anti-CD163 PE, MAC2-158, IQ Products, Groningen, The Netherlands; anti-CD163 PE, GHI/61, BD Biosciences, CA, USA; anti-ILT3/CD85k PE-Cy5, ZM3.8, IOTests®, Beckman and Coulter, Marseille, France; anti-HLA-DR PerCP, L234, BD Biosciences, San Diego, Calif.; anti-CD4 APC, EDU-2, Diatec.com A/S, Oslo, Norway; anti-CD14 APC, 18D11, Diatec.com A/S, Oslo, Norway) for 15 minutes at room temperature in the dark. […] For CD163 density quantitation, flow cytometric estimation of antibodies bound/cell (ABCs) was performed using Quantibrite PE beads (Becton Dickinson, San Jose, Calif., USA) as recommended by the manufacturer. […]
In general terms: In flow cytometry, cells or beads pass a laser one at a time.

T1 sequence (Q86VB7 42-1156): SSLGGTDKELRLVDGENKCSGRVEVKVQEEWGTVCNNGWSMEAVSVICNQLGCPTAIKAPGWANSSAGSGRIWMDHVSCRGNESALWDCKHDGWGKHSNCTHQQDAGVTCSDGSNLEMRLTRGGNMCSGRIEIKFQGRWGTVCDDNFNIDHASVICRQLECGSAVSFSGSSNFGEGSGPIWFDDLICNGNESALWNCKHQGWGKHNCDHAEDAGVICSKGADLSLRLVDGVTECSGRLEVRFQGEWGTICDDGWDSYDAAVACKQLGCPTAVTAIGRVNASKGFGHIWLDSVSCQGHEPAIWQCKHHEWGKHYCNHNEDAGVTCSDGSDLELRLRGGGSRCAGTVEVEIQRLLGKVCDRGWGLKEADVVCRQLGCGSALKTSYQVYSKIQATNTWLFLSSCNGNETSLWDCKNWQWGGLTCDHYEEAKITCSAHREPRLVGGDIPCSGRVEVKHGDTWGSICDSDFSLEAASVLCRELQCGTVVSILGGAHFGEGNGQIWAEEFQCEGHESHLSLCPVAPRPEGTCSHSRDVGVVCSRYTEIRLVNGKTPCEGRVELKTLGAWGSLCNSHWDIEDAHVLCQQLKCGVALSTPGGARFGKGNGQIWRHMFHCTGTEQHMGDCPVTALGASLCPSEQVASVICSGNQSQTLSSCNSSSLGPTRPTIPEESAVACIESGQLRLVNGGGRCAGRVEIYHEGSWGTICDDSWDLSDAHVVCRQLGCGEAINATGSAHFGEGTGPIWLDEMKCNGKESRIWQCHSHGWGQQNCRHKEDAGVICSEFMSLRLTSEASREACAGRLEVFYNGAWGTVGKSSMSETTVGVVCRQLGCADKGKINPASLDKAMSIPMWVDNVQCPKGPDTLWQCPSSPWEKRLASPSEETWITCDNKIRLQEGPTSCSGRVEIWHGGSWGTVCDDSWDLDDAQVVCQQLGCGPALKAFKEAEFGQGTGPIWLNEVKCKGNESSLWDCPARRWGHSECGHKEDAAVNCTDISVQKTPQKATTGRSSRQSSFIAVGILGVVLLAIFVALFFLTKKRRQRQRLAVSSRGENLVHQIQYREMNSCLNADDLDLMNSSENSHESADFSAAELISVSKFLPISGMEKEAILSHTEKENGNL

B1: MAC2-158: anti-human CD163 murine mAb, binds SRCR domain 1, IQ Products; VH SEQ ID NO: 1, VL SEQ ID NO: 2 (antibody, V domains shown)
VH: DVQLQESGPGLVKPSQSLSLTCTVTGYSITSDYAWNWIRQFPGNKLEWMGYITYSGITNYNPSLKSQISITRDTSKNQFFLQLNSVTTEDTATYYCVSGTYYFDYWGQGTTLTVSS
VL: SVVMTQTPKSLLISIGDRVTITCKASQSVSSDVAWFQQKPGQSPKPLIYYASNRYTGVPDRFTGSGYGTDFTFTISSVQAEDLAVYFCGQDYTSPRTFGGGTKLEIKRA
modifications: Mac2-158 VH; Mac2-158 VL
Regarding B1, the “fraction of peripheral blood dendritic cells recognized (CD163 expressing)” value (CD14-ILT3+HLA-DR+ cells, whole blood) is on record as 32.3%. Also, for the setting “peripheral blood dendritic cells”, the “MFI, reflecting the amount of CD163 receptors per cell” value is recorded as 107.5.
